Data published in patent US10106582B2, “Complex-formation-modulating agents and uses therefor” (Factor Therapeutics Limited, priority 2012, dated 2018).

Legend:
[1] = molecular target: T1, IGF-II (Homo sapiens, UniProt P01344); assay: VN-peptide array: binding of IGF-II to immobilized overlapping 16-mer VN peptides; details: spot stronger than negative controls = positive hit
T1 construct: purchased GroPep
Text: The inventors designed small-molecule VN-peptides that could potentially disrupt the formation of the IGF-I:IGFBP:VN trimeric or the IGF-II:VN dimeric complexes by binding to the IGFBPs and/or IGF-II and preventing their association with VN within the complex. To design peptides, the binding sites of IGFBP-3/-5 and IGF-II on VN were first determined using VN-peptide arrays. The entire VN protein sequence, excluding the signal peptide (residues 1-19), was divided into overlapping 16-mer peptides with 3AA frameshift/offset (for peptide sequences refer to Table 6) and immobilized onto cellulose membranes (peptide spotting was outsourced to PepMetric Technologies Inc). For a schematic of the arrangement of VN peptides and controls refer to FIG. 2. The resultant peptide arrays were incubated either with IGFBP-3, IGFBP-5 or IGF-II ligands, probed with the respective antibodies, the membranes developed using ECL, and imaged using the ChemiDoc™ XRS system (BioRad). The spots on the membrane were analysed using TotalLab array quantification software (TotalLab Ltd, Newcastle, England) identifying positive peptide spots by comparing each spot to the combined intensities of the negative controls.
The entire VN protein sequence, excluding the signal peptide (residues 1-19), was divided into overlapping 16-mer peptides with 3 amino acid (AA) frameshift/offset. This yielded 148 overlapping peptides covering the entire VN sequence (residues 20-478) (Table 6) with a resolution of 3 AA. Peptide synthesis and spotting onto a cellulose membrane were outsourced to PepMetric Technologies Inc. (Richmond, BC, Canada). For a diagrammatic illustration of the strategy used to divide an example amino acid sequence into peptides and to spot them onto the membrane, please refer to http://www.pepmetric.com/html/Pep-Overlap.html. The VN-overlapping peptides were generated using FMOC (9-fluorenylmethoxycarbonyl) Solid-Phase SPOT synthesis onto PEG-grafted amine-functionalized cellulose membrane (Whatman® 540 filter paper). The peptides were spotted onto the cellulose membrane in a 10×16 grid with each peptide being 10˜50 nM in concentration with >70% purity. Finally, these membranes were acetylated in order to cap the free ends of the spotted peptides preventing them from degradation during shipping and storage.
Along with the VN-peptides these membranes were also spotted with a positive control (i.e., universal binding peptides tested by the manufacturer to be positive for antibodies from goat, mouse, rat and chicken) and a negative control (ie. non-binding peptides as well as BSA) controls. For a schematic of the arrangement of VN-peptides and controls refer to FIG. 2 and for the sequence of each peptide corresponding to the grid number refer to Table 6. Four such replicate membranes were prepared and stored at room temperature in a clip sealed plastic bag. Long-term storage was at −20° C.
Methanol or ethanol was used to enhance the rehydration of peptide spots that might be hydrophobic. The peptides spotted onto the membranes were activated by incubating in 3 mL of 70% ethanol for five mins. The membranes were subsequently washed three times, 10 minutes each, in 10 mL TBS (Tris Buffered Saline; 8 g NaCl, 0.2 g KCl and 6.1 g Tris Base into 1000 mL of milliQ water, pH 7) with gentle rocking. Membrane blocking was performed by incubating in 10 mL casein-based membrane blocking buffer (MBS; Sigma-Aldrich) overnight at 4° C. The following day, the membranes were washed twice, 10 minutes each, in 10 mL TBS-T (TBS+0.05% Tween-20; pH 7).
Ligands used to test binding to VN-peptides were IGFBP-3, IGFBP-5 and IGF-II. For ligand binding, four separate solutions of 1 μg/mL ligand in 10 mL MBS buffer were prepared and each membrane was incubated in one of the four ligand solutions overnight at 4° C., with gentle rocking. […] The following day, the membranes were washed three times, 10 minutes each, in 10 mL TBS-T. […]

[2] = test system: MCF-7 cells; assay: 3D Matrigel growth assay of MCF-7 tumor spheroids; assay type: cell-based, human
Text: FIG. 7 is a photographic and graphical representation showing MCF-7 3D cell growth in response to peptide antagonists. MCF-7 cells suspended in media containing 1% serum and 2.5% Matrigel (Matrigel media) were layered onto a thin layer of 100% Matrigel. Spheroids were allowed to form in Matrigel media containing VN, TRI or TRI supplemented with peptides P7 and P8. Cells were allowed to grow for 14 days with media+proteins changed every 3 days. (A) Phase contrast and fluorescence microscopy was used to obtain images of the spheroids treated with 90 nM P7, P8 or P7+8. The fluorescent images were subjected to analysis using Image J to calculate spheroid sizes. The images post-ImageJ analyses are depicted in the bottom panel of A. All the images depicted are representative images obtained from triplicate experiments with treatments tested in duplicates in each replicate experiment. Scale bar denotes 100 μm. (B) Scatter plot depicts mean spheroid size (μm^2) at Day 14 for each treatment, calculated using Image-J (90 nM peptide treatments are depicted here). Each data point in the graph is the average size of all spheroids present in a single field of view at 40× magnification. ** denotes p<0.01 and * denotes p<0.05. (C) To measure cell viability/proliferation the 3D culture was treated on Day 14 with 5% Alamar Blue dye for 4 hours and fluorescence intensities were recorded. Error bars indicate SEM. ** denotes p<0.01 Vs TRI and * denotes p<0.05 Vs TRI. The experiment was repeated twice with treatments tested in duplicate wells in each replicate experiment. TRI=IGF-I:IGFBP-5:VN trimeric complex (equimolar at 10 nM concentrations).
To closely mimic in vivo conditions, cells were grown in a 3D matrix (Matrigel) closely resembling in vivo extracellular matrix physiology. MCF-7 cells suspended in growth media containing 1% serum and 2.5% Matrigel (Matrigel media) were layered onto a thin layer of 100% Matrigel. Tumor spheroids were allowed to form for 3 days after which spent media was replenished with Matrigel media containing VN only, trimeric complex, or trimeric complex supplemented with increasing concentrations of peptides (P7, P8 or P7+P8). Cells were allowed to grow for additional 11 days with media+proteins changed every 3 days. Spheroid morphology was assessed using phase-contrast microscopy and cell viability was measured using AlamarBlue, a fluorescent metabolic dye.

T1 sequence (P01344 25-91 limits assumed): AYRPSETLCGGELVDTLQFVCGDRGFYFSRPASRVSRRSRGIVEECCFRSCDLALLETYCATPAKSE

In the case of “KTYLFKGSQYWRFEDG [Neg, reference compound]”, the “Binding of IGF-II on VN-peptide array (positive spot or not)” value [1] was “did not show any binding”.

In the case of “LFSSEESNLGANNYDDYRMDWL (listed as Homo sapiens) [Peptide P7, human VN motif 7 mimic]”, the “Binding of IGF-II on VN-peptide array (positive spot or not)” value [1] was “binds”, the “TRI-stimulated cell viability (AlamarBlue)” value ([2]; 90 nM peptide, Day 14, 3D Matrigel culture) was “significantly inhibit” and the “Size of TRI-treated tumor spheroids (phase-contrast microscopy)” value ([2]; increasing concentrations of peptides, Matrigel 3D culture, 14 days) was “decrease with increasing concentrations”.
